Measured values reported in ChEMBL document CHEMBL5046279, “Discovery of a Partial Glucokinase Activator Clinical Candidate: Diethyl ((3-(3-((5-(Azetidine-1-carbonyl)pyrazin-2-yl)oxy)-5-isopropoxybenzamido)-1H-pyrazol-1-yl)methyl)phosphonate (BMS-820132)” (J Med Chem, 2022).

Substrate: CCOP(=O)(Cc1csc(NC(=O)c2cc(Oc3ccc(S(C)(=O)=O)cc3)cc(O[C@@H](C)COC)c2)n1)OCC
Details: Homo sapiens; filed as activator
Description: Activation of human glucokinase assessed as decrease in glucose Km

B1: Hexokinase-4 (Homo sapiens), P35557 (protein)
chain: MLDDRARMEAAKKEKVEQILAEFQLQEEDLKKVMRRMQKEMDRGLRLETHEEASVKMLPTYVRSTPEGSEVGDFLSLDLGGTNFRVMLVKVGEGEEGQWSVKTKHQMYSIPEDAMTGTAEMLFDYISECISDFLDKHQMKHKKLPLGFTFSFPVRHEDIDKGILLNWTKGFKASGAEGNNVVGLLRDAIKRRGDFEMDVVAMVNDTVATMISCYYEDHQCEVGMIVGTGCNACYMEEMQNVELVEGDEGRMCVNTEWGAFGDSGELDEFLLEYDRLVDESSANPGQQLYEKLIGGKYMGELVRLVLLRLVDENLLFHGEASEQLRTRGAFETRFVSQVESDTGDRKQIYNILSTLGLRPSTTDCDIVRRACESVSTRAAHMCSAGLAGVINRMRESRSEDVMRITVGVDGSVYKLHPSFKERFHASVRRLTPSCEITFIESEEGSGRGAALVSAVACKKACMLGQ
- Km: 2400 µM
